Source: paper PMC6961540
Read-outs that look alike come from different tables or passages of the source.

How the values were obtained:
[1] = biological target: T1, Ago2 (Flag-tagged, HFT-Ago2) (UniProt Q9UKV8 1-859); experiment: pull-down
[2] = biological target: T2, Ago2 (HaloTag-Ago2) (UniProt Q9UKV8 1-859); experiment: competition filter binding
[3] = biological target: T1, Ago2 (Flag-tagged, HFT-Ago2); experiment: pull-down; remark: listed apart in the source
[4] = biological target: T1, Ago2 (Flag-tagged, HFT-Ago2); experiment: filter binding
[5] = biological target: T1, Ago2 (Flag-tagged, HFT-Ago2); experiment: competition filter binding
[6] = biological target: T2, Ago2 (HaloTag-Ago2); experiment: pull-down

T1 sequence (Q9UKV8 whole entry): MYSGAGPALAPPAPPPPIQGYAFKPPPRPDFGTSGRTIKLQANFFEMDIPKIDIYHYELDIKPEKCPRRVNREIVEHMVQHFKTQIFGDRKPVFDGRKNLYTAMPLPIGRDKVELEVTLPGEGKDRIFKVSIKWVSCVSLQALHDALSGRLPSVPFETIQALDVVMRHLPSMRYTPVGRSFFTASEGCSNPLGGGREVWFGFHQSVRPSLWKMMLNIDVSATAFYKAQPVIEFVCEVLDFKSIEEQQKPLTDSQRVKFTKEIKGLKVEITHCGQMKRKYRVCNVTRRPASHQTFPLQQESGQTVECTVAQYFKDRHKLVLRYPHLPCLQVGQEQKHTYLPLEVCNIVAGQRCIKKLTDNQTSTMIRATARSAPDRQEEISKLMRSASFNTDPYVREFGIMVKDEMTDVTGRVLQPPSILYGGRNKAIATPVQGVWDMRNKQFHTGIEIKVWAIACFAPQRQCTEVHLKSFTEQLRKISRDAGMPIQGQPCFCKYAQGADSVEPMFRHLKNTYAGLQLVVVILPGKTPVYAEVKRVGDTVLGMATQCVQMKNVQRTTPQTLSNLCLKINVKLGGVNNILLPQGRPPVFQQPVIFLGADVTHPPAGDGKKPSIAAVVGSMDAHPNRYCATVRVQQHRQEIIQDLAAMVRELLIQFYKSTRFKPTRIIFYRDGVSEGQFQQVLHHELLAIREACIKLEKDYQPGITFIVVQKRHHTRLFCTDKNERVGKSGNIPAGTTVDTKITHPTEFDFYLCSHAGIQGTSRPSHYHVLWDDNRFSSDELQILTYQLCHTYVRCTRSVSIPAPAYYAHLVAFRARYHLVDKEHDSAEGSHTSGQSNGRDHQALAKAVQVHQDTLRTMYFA
T2 sequence (Q9UKV8 whole entry): as above

B1: miR122-v1 guide / target-1 with swapped (4 nt) bridge (mixed)
RNA 1: UGGAGUGUGACAGCGGCGAAAG
RNA 2: CCGCAAAAACACUCCUAA
modifications: 5'-phosphate on guide
Q: Does B1 bind [1]?
A: binds

B2: miR122-v2 guide / target-2 (seed + sup) (mixed)
RNA 1: UGGAGUGUGACACUAUCGAAAG
RNA 2: AUAGAAAAACACUCCUAA
modifications: 5'-phosphate on guide
Q: B2 was tested. Which binding signal [2] did it give?
A: ~5 fold bound over target-1

B3: miR122-v1 guide / target-2 (seed-only) (mixed)
RNA 1: UGGAGUGUGACAGCGGCGAAAG
RNA 2: AUAGAAAAACACUCCUAA
modifications: 5'-phosphate on guide
Q: Does B3 bind [3]?
A: binds

B4: miR122-v1 guide / target-1 (seed + sup) (mixed)
RNA 1: UGGAGUGUGACAGCGGCGAAAG
RNA 2: CCGCAAAAAAAAAAACACUCCUAA
modifications: 5'-phosphate on guide
Q: For B4, which Kd [4] is on record?
A: 5.6 ± 0.5 pM

Q: What about the binding signal [5] of the same binder?
A: ~13 fold bound over target-2

B5: miR122-v2 guide / target-1 (seed-only) (mixed)
RNA 1: UGGAGUGUGACACUAUCGAAAG
RNA 2: CCGCAAAAAAAAAAACACUCCUAA
modifications: 5'-phosphate on guide
Q: Does B5 bind [6]?
A: binds
